Data set [1] has as its target T1, recombinant Bri2(90-236) (Homo sapiens, UniProt Q9Y287).
T1 construct: His6 (N, cleaved yes); thioredoxin (N, cleaved yes); made in house; host or cells: E. coli Origami(DE3)pLysS, pET-32c vector
T1 sequence (Q9Y287 90-236): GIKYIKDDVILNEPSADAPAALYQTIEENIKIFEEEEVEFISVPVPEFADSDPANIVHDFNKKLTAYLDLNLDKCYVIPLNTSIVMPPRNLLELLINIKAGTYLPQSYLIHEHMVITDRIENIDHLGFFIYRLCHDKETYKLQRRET
In words: ESI-MS binding of peptides to recombinant Bri2(90-236) (substrate specificity). The settings on record: 20 μM Bri2(90-236); for complex formation of peptide with recombinant Bri2(90-236): 50 μM peptide (peptide/protein ratio 2.5). The method, then:
Prior to electrospray ionization mass spectrometry (ESI-MS), purified Bri2(90-236) (SEQ ID NO: 2) was rebuffered into 10 mM ammonium acetate, pH 7.0, using spin columns with a 3 kDa cut-off limit (Nanosep, Pall Corp., East Hills, N.Y., USA). Protein and peptides were mixed at 22° C. directly before analysis at a final protein concentration of 20 μM and a final peptide concentration of 50 μM. Data was acquired using a QTOF Ultima API mass spectrometer (Waters, Milford, Mass., USA) equipped with a Z-spray source operated in the positive-ion mode. Samples were introduced via nano-electrospray using metal-plated borosilicate glass capillary needles (Proxeon, Denmark). The source temperature was 80° C., the capillary voltage 1.7 kV, and the cone and RF lens 1 potentials were 100 and 38 V, respectively. The mass spectrometer was operated in single-reflector mode at a resolution of 10 000 (full width half maximum definition), and the mass scale was calibrated using myoglobin. Scans were acquired at a rate of 1 scan per 2 sec between 500 and 4000 m/z. The collision gas was argon at 5.2×10^−5 mbar. Mass spectra were smoothed using the Waters MassLynx software.
All peptides, with the exception of KFFEYNGKKFFE (SEQ ID NO: 15), ABri23 (SEQ ID NO: 4) and Aβ1-40 (SEQ ID NO: 11), were purchased from Thermo Electron (Darmstadt, Germany). KFFEYNGKKFFE was purchased from Interactiva (Ulm, Germany) and Aβ1-40 and disulfide-linked ABri23 were from Bachem (Bubendorf, Switzerland).
Peptides, except for KFFEYNGKKFFE, ABri23 and Aβ1-40, were acetylated at the N-terminus and amidated at the C-terminus. The compositions of all peptides were verified by ESI-MS and amino acid analysis. Peptide YYY was dissolved to a final concentration of 10 mM in 30% acetonitrile. VVV, FFF and LLL were dissolved in 50% isopropanol to a final concentration of 10 mM. KKK, GGG and AAA were dissolved in water to a final concentration of 10 mM, while KFFEYNGKKFFE and ABri23 were dissolved in water to final concentrations of 5.6 mM and 1 mM, respectively. All peptide samples were stored at −20° C., except for Aβ1-40 which was dissolved to a final concentration of 1 mM in water directly prior to analysis.
To further investigate the substrate specificity of Bri2(90-236), homotripeptides with aromatic (YYY, FFF), hydrophobic (VVV, LLL), charged (KKK) or small uncharged (AAA, GGG) side-chains, were employed to study binding, under maintained water solubility. […] The peptide sequences are denoted in each spectrum. Symbols * and ** indicate peaks corresponding to recombinant Bri2(90-236) with one or two peptide ligands, respectively. […] Bri2(90-236) also binds the peptide KFFEYNGKKFFE (FIG. 6).

Data set [2] concerns the target T2, Aβ1-42 (Homo sapiens, UniProt P05067).
T2 construct: made in house; host or cells: E. coli
Nature of the data set: ThT aggregation kinetics of Aβ1-42 (Example 4). The class given is biochemical. The settings on record: 0.1 and 1 molar equivalents to Aβ1-42; compared to the same amounts of Bri2(90-236); data not shown. The text has this:
Aβ1-40 (SEQ ID NO: 11) and Aβ1-42 (SEQ ID NO: 12) were expressed in E. coli from synthetic genes and purified in batch format using ion exchange and size exclusion steps as described in Walsh et al., FEBS J. 2009, 276, 1266-1281, which results in highly pure monomeric peptide. Purified peptide was divided into 20-30 identical aliquots and frozen. Monomer was then isolated by gel filtration of an aliquot of purified peptide just prior to setting up each of the experiments listed below to remove traces of aggregate formed during freezing and thawing and to exchange buffer to the one used in the respective experiment. Monomer was collected in low-bind Ep-tubes ([…]) on ice, and the concentration was determined by absorbance or amino acid analysis after acid hydrolysis. The monomer was used as is or diluted to the desired concentration for the respective experiment. Bri2(90-236) (SEQ ID NO: 2) was expressed and purified as described in Example 1. Aggregation kinetics were studied by recording the Thioflavin T (ThT) fluorescence intensity as a function of time in a plate reader (FluoStar Omega from BMG Labtech, Offenberg, Germany). The fluorescence was recorded using bottom optics in half-area 96-well PEG-coated black polystyrene plates with clear bottom (Corning 3881) using 440 nm excitation filter and 480 nm emission filter. Aβ monomer was isolated by gel filtration as above in 20 mM Na-phosphate, 200 μM EDTA, 0.02% NaN3 (at pH 7.4 in the case of Aβ1-40 and at pH 8.0 for Aβ1-42) and diluted to 6 or 8 μM in the case of Aβ1-40 and 3 μM in the case of Aβ1-42 in the same buffer and supplemented with 20 μM ThT from a 2 mM stock. To each well in the 96-well plate was first added either 10 μl buffer (20 mM Tris/HCl pH 7.4) or 10 μl of Bri2(90-236) protein or control protein at ten times the desired final concentration in 20 mM Tris/HCl pH 7.4. To each well was then added 90 μl of the ice-cold Aβ monomer solution, and the plate was immediately placed in the plate reader at 37° C., with fluorescence read every 6 minutes with continuous shaking at 100 rpm between readings. […]

Data set [3] deals with T3, Aβ1-40 (Homo sapiens, UniProt P05067).
T3 construct: made in house; host or cells: E. coli
T3 sequence (P05067 672-711): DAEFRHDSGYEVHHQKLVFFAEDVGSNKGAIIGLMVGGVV
In kind it is biochemical. The settings on record: 0.1 and 1 molar equivalents to Aβ1-40; compared to the same amounts of Bri2(90-236); data not shown. From the text: Aβ1-40 (SEQ ID NO: 11) and Aβ1-42 (SEQ ID NO: 12) were expressed in E. coli from synthetic genes and purified in batch format using ion exchange and size exclusion steps as described in Walsh et al., FEBS J. 2009, 276, 1266-1281, which results in highly pure monomeric peptide. Purified peptide was divided into 20-30 identical aliquots and frozen. Monomer was then isolated by gel filtration of an aliquot of purified peptide just prior to setting up each of the experiments listed below to remove traces of aggregate formed during freezing and thawing and to exchange buffer to the one used in the respective experiment. Monomer was collected in low-bind Ep-tubes ([…]) on ice, and the concentration was determined by absorbance or amino acid analysis after acid hydrolysis. The monomer was used as is or diluted to the desired concentration for the respective experiment. Bri2(90-236) (SEQ ID NO: 2) was expressed and purified as described in Example 1. Aggregation kinetics were studied by recording the Thioflavin T (ThT) fluorescence intensity as a function of time in a plate reader (FluoStar Omega from BMG Labtech, Offenberg, Germany). The fluorescence was recorded using bottom optics in half-area 96-well PEG-coated black polystyrene plates with clear bottom (Corning 3881) using 440 nm excitation filter and 480 nm emission filter. Aβ monomer was isolated by gel filtration as above in 20 mM Na-phosphate, 200 μM EDTA, 0.02% NaN3 (at pH 7.4 in the case of Aβ1-40 and at pH 8.0 for Aβ1-42) and diluted to 6 or 8 μM in the case of Aβ1-40 and 3 μM in the case of Aβ1-42 in the same buffer and supplemented with 20 μM ThT from a 2 mM stock. To each well in the 96-well plate was first added either 10 μl buffer (20 mM Tris/HCl pH 7.4) or 10 μl of Bri2(90-236) protein or control protein at ten times the desired final concentration in 20 mM Tris/HCl pH 7.4. To each well was then added 90 μl of the ice-cold Aβ monomer solution, and the plate was immediately placed in the plate reader at 37° C., with fluorescence read every 6 minutes with continuous shaking at 100 rpm between readings. Aβ1-40 was studied alone or with Bri2(90-236) at a concentration ranging from 60 nM to 6 μM. Aβ1-42 was studied alone or with Bri2(90-236) at a concentration ranging from 20 nM to 6 μM.

T2 sequence (P05067 672-713): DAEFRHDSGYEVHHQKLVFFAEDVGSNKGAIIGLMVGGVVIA

On to “AAA: homotripeptide with small uncharged side-chains”, for which the “complex formation of peptide with recombinant Bri2(90-236)” value (from here on “complex formation of peptide”) in data set [1] is reported as “No interactions were observed”.
Turning to “FFF: homotripeptide with aromatic side-chains (Ac-Phe-Phe-Phe-NH2)”, in data set [1], the “complex formation of peptide” value is on record as “No interactions were observed”.
With “GGG: homotripeptide with small uncharged side-chains (Ac-Gly-Gly-Gly-NH2)”, in data set [1], the “complex formation of peptide” value is on record as “No interactions were observed”.
The same measure, in the same setting: then KFFEYNGKKFFE, with “found to form complexes”; and “KKK: homotripeptide with charged side-chains (Ac-Lys-Lys-Lys-NH2)”, with “No interactions were observed”.
Take “LLL: homotripeptide with hydrophobic side-chains (Ac-Leu-Leu-Leu-NH2)”: the “complex formation of peptide” value in data set [1] was “No interactions were observed”.
Still for that read-out and setting: with “VVV: homotripeptide with hydrophobic side-chains (Ac-Val-Val-Val-NH2)” the entry was “No interactions were observed”.
With “YYY: homotripeptide with aromatic side-chains (Ac-Tyr-Tyr-Tyr-NH2)”, in data set [1] (50 μM peptide), the “number of peptide molecules per Bri2(90-236) in complexes” value is recorded as “one or two”. Besides, the “complex formation of peptide” value in data set [1] is listed as “found to form complexes”.
Regarding cystatin [reference compound], the “effects of control protein on Aβ1-42 aggregation (ThT assay)” value in data set [2] is listed as “small”. Further, in data set [3], the “effects of control protein on Aβ1-40 aggregation (ThT assay)” value is “small”.

Source of the values: US8785391B2, “Compound and method for treatment of alzheimer's disease and familial dementia” (Alphabeta AB, priority 2010, dated 2014).
